Test results as given in patent publication US20260199502A1, “BINDING MOLECULE” (priority 2022, published 2026).

B1: IBIIICI mouse scFv: known ancestral mouse scFv binding the peptide tag moiety, SEQ ID NO:25 (protein, listed as Mus musculus)
scFv: EVRLLQSGAALVRPGASVKLSCTASGFNIKDFNIHWVKQRPEQGLEWIGRIDPENGDAEYVPKFQVRATMTTDTSSNTVYLHLSSLTSGDTAVYYCTTGSYDLDVEYWGQGTTLTVSSGGGGSGGGGSGGGGSGGGGSELQMTQSPSSLSASLGDTVTITCHASQNINVWLSWYQQRPGNIPKLLIYKASTLHTGVPSRFRGSGSGTGFTLTISSLQPEDIATYYCQQGQSYPLTFGAGTKLELK
B2: IBIIICI CDR graft scFv variant NG (wt): original humanized IBIIICI CDR graft scFv, SEQ ID NO:54, NG at positions 62-63 of VH (protein)
scFv: QVQLVQSGAEVKKPGASVKVSCKASGFNIKDFNIHWVRQAPGQGLEWIGRIDPENGDAEYVPKFQGRVTMTRDTSTSTVYMELSSLRSEDTAVYYCTTGSYDLDVEYWGQGTLVTVSSGGGGSGGGGSGGGGSGGGGSDIQMTQSPSSLSASVGDRVTITCHASQNINVWLSWYQQKPGKAPKLLIYKASTLHTGVPSRFSGSGSGTDFTLTISSLQPEDFATYYCQQGQSYPLTFGQGTKLEIK
B3: IBIIICI CDR graft scFv variant SG: humanized scFv point mutated variant, SEQ ID NO:49 (protein)
scFv: QVQLVQSGAEVKKPGASVKVSCKASGFNIKDFNIHWVRQAPGQGLEWIGRIDPESGDAEYVPKFQGRVTMTRDTSTSTVYMELSSLRSEDTAVYYCTTGSYDLDVEYWGQGTLVTVSSGGGGSGGGGSGGGGSGGGGSDIQMTQSPSSLSASVGDRVTITCHASQNINVWLSWYQQKPGKAPKLLIYKASTLHTGVPSRFSGSGSGTDFTLTISSLQPEDFATYYCQQGQSYPLTFGQGTKLEIK
B4: IBIIICI CDR graft scFv variant GG: humanized scFv point mutated variant, SEQ ID NO:50 (protein)
scFv: QVQLVQSGAEVKKPGASVKVSCKASGFNIKDFNIHWVRQAPGQGLEWIGRIDPEGGDAEYVPKFQGRVTMTRDTSTSTVYMELSSLRSEDTAVYYCTTGSYDLDVEYWGQGTLVTVSSGGGGSGGGGSGGGGSGGGGSDIQMTQSPSSLSASVGDRVTITCHASQNINVWLSWYQQKPGKAPKLLIYKASTLHTGVPSRFSGSGSGTDFTLTISSLQPEDFATYYCQQGQSYPLTFGQGTKLEIK
B5: IBIIICI CDR graft scFv variant QG: humanized scFv point mutated variant, SEQ ID NO:51 (protein)
scFv: QVQLVQSGAEVKKPGASVKVSCKASGFNIKDFNIHWVRQAPGQGLEWIGRIDPEQGDAEYVPKFQGRVTMTRDTSTSTVYMELSSLRSEDTAVYYCTTGSYDLDVEYWGQGTLVTVSSGGGGSGGGGSGGGGSGGGGSDIQMTQSPSSLSASVGDRVTITCHASQNINVWLSWYQQKPGKAPKLLIYKASTLHTGVPSRFSGSGSGTDFTLTISSLQPEDFATYYCQQGQSYPLTFGQGTKLEIK
B6: IBIIICI CDR graft scFv variant DG: humanized scFv point mutated variant, SEQ ID NO:52 (protein)
scFv: QVQLVQSGAEVKKPGASVKVSCKASGFNIKDFNIHWVRQAPGQGLEWIGRIDPEDGDAEYVPKFQGRVTMTRDTSTSTVYMELSSLRSEDTAVYYCTTGSYDLDVEYWGQGTLVTVSSGGGGSGGGGSGGGGSGGGGSDIQMTQSPSSLSASVGDRVTITCHASQNINVWLSWYQQKPGKAPKLLIYKASTLHTGVPSRFSGSGSGTDFTLTISSLQPEDFATYYCQQGQSYPLTFGQGTKLEIK
B7: IBIIICI CDR graft scFv variant NA: humanized scFv point mutated variant, SEQ ID NO:53 (protein)
scFv: QVQLVQSGAEVKKPGASVKVSCKASGFNIKDFNIHWVRQAPGQGLEWIGRIDPENADAEYVPKFQGRVTMTRDTSTSTVYMELSSLRSEDTAVYYCTTGSYDLDVEYWGQGTLVTVSSGGGGSGGGGSGGGGSGGGGSDIQMTQSPSSLSASVGDRVTITCHASQNINVWLSWYQQKPGKAPKLLIYKASTLHTGVPSRFSGSGSGTDFTLTISSLQPEDFATYYCQQGQSYPLTFGQGTKLEIK

How the values were obtained:
[1] = target: panel of 14 peptides (UU0024, UU0070-UU0078, UU0080-UU0083) comprising the tag moiety; test: SPR affinity of captured scFv against a peptide panel (Example 3); assay type: binding; conditions: SPR single cycle kinetics, peptides 0.16 nM to 100 nM; to most target peptides in the tested panel
Method: Affinity measurements of the IBIIICI mouse scFv and IBIIICI CDR graft scFv variants obtained as described in Examples 1-2 were performed by SPR using a Biacore T200 instrument (GE Healthcare) and single cycle kinetics. Anti-FLAG M2 antibody (Sigma-Aldrich) was immobilized onto a Series S CM5 chip by primary amine coupling using NHS-EDC chemistry according to the manufacturer's instruction, allowing capture of the respective scFv through the FLAG tags provided by the expression vector. A 5-fold dilution series comprising of five concentrations (0.16 nM to 100 nM) of different peptides (Table 2) was sequentially injected over the flow cells, allowing binding to the captured scFv. Following a dissociation phase, regeneration of the surface was accomplished under acidic conditions using 10 mM glycine-HCl at pH 2.1. By subtracting the response curve of a surface having an anti-FLAG antibody immobilized thereto (the reference surface), response unit sensorgrams for all peptides were obtained. Data was analyzed using BIAeval v.3.1 (GE Healthcare).

[2] = Melting temperature (Tm) determination by nanoDSF; assay type: physicochemical; conditions: inflection point #1, 1.0 mg/ml in PBS, 20-95° C. at 1° C./min
Method: In order to evaluate the stability of the purified scFv variants, the melting temperatures were determined by nanoDSF using a Prometheus NT.48 instrument (NanoTemper Inc). The nanoDSF technology measures the intrinsic fluorescence of a protein while it is being subjected to thermal denaturation, thereby characterizing the unfolding of the protein under native conditions.
The six purified IBIIICI CDR graft scFv variants were diluted to 1.0 mg/ml in PBS and loaded into a high sensitivity capillary (NanoTemper, #PR-C006) through capillary force. A melting temperature ramp was set to between 20° C. and 95° C., with heating at 1° C./min. Tryptophan emission was measured at 330 nm and 350 nm, and the calculated ratio was plotted against temperature to obtain melting curves for each variant. Tm values were deduced using the software PR ThermoControl (NanoTemper Inc).

| Molecule | binding affinity [1] | Tm [2] | Tm ([2]; listed as IBIIICI CDR graft scFv SG) | Tm ([2]; listed as IBIIICI CDR graft scFv NA) |
| --- | --- | --- | --- | --- |
| B1 | low nanomolar |  |  |  |
| B2 | low nanomolar | 63.4 °C |  |  |
| B3 |  | 64.3 °C | 64 °C |  |
| B4 |  | 62.6 °C |  |  |
| B5 |  | 62.2 °C |  |  |
| B6 |  | 62.4 °C |  |  |
| B7 |  | 60.8 °C |  | 61 °C |
